Values belong to the binder of their own block, whether it stands above or below them.
What was measured:
[1] = target: M44-modified T NTAA target peptides; assay: encoding assay; P2 D;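 further: fraction of recording tags encoded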
[2] = target: M44-modified P NTAA target peptides; assay: encoding assay; P2 D;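 further: fraction of recording tags encoded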
[3] = target: M44-modified D NTAA target peptides; assay: encoding assay; P2 D;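 further: fraction of recording tags encoded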
[4] = target: M44-modified E NTAA target peptides; assay: encoding assay; P2 D;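 further: fraction of recording tags encoded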
[5] = target: M44-modified H NTAA target peptides; assay: encoding assay; P2 D;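 further: fraction of recording tags encoded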
[6] = target: M44-modified V NTAA target peptides; assay: encoding assay; P2 D;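 further: fraction of recording tags encoded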
[7] = target: M44-modified S NTAA target peptides; assay: encoding assay; P2 D
[8] = target: M44-modified A NTAA target peptides (M44-A-P2-peptide); assay: encoding assay; P2 G;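 further: fraction of recording tags encoded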
[9] = target: M44-modified P NTAA target peptides; assay: encoding assay; P2 G;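 further: fraction of recording tags encoded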
[10] = target: M44-modified D NTAA target peptides; assay: encoding assay; P2 G;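 further: fraction of recording tags encoded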
[11] = target: M44-modified H NTAA target peptides; assay: encoding assay; P2 G;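 further: fraction of recording tags encoded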
[12] = target: M44-modified S NTAA target peptides; assay: encoding assay; P2 G
[13] = target: M44-modified N NTAA target peptides; assay: encoding assay; P2 G
[14] = target: M17-modified T NTAA target peptides; assay: encoding assay; P2 L;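 further: fraction of recording tags encoded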
[15] = target: M17-modified P NTAA target peptides; assay: encoding assay; P2 L;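 further: fraction of recording tags encoded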
[16] = target: M17-modified D NTAA target peptides; assay: encoding assay; P2 L;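 further: fraction of recording tags encoded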
[17] = target: M17-modified Q NTAA target peptides; assay: encoding assay; P2 L;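 further: fraction of recording tags encoded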
[18] = target: M17-modified E NTAA target peptides; assay: encoding assay; P2 L;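 further: fraction of recording tags encoded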
[19] = target: M17-modified V NTAA target peptides; assay: encoding assay; P2 L;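 further: fraction of recording tags encoded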
[20] = target: M17-modified G NTAA target peptides; assay: encoding assay; P2 L;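 further: fraction of recording tags encoded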
[21] = target: M17-modified A NTAA target peptides; assay: encoding assay; P2 L;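 further: fraction of recording tags encoded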
[22] = target: M17-modified W NTAA target peptides; assay: encoding assay; P2 L;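 further: fraction of recording tags encoded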
[23] = target: M17-modified T NTAA target peptides; assay: encoding assay; P2 D;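 further: fraction of recording tags encoded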
[24] = target: M17-modified P NTAA target peptides; assay: encoding assay; P2 D;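 further: fraction of recording tags encoded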
[25] = target: M17-modified D NTAA target peptides; assay: encoding assay; P2 D;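 further: fraction of recording tags encoded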
[26] = target: M17-modified M NTAA target peptides; assay: encoding assay; P2 D;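 further: fraction of recording tags encoded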
[27] = target: M17-modified I NTAA target peptides; assay: encoding assay; P2 D;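 further: fraction of recording tags encoded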
[28] = target: M17-modified Q NTAA target peptides; assay: encoding assay; P2 D;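 further: fraction of recording tags encoded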
[29] = target: M17-modified Y NTAA target peptides (M17-Y-P2-peptide); assay: encoding assay; P2 D;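 further: fraction of recording tags encoded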
[30] = target: M17-modified L NTAA target peptides; assay: encoding assay; P2 D;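 further: fraction of recording tags encoded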
[31] = target: M17-modified E NTAA target peptides; assay: encoding assay; P2 D;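 further: fraction of recording tags encoded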
[32] = target: M17-modified V NTAA target peptides; assay: encoding assay; P2 D;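 further: fraction of recording tags encoded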
[33] = target: M17-modified H NTAA target peptides; assay: encoding assay; P2 D;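 further: fraction of recording tags encoded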
[34] = target: M17-modified S NTAA target peptides; assay: encoding assay; P2 D;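 further: fraction of recording tags encoded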
[35] = target: M17-modified G NTAA target peptides; assay: encoding assay; P2 D;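 further: fraction of recording tags encoded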
[36] = target: M17-modified F NTAA target peptides; assay: encoding assay; P2 D;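 further: fraction of recording tags encoded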
[37] = target: M17-modified A NTAA target peptides; assay: encoding assay; P2 D;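 further: fraction of recording tags encoded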
[38] = target: M17-modified W NTAA target peptides; assay: encoding assay; P2 D;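 further: fraction of recording tags encoded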
[39] = target: M17-modified N NTAA target peptides; assay: encoding assay; P2 D;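 further: fraction of recording tags encoded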
[40] = target: M17-modified T NTAA target peptides; assay: encoding assay; P2 G;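 further: fraction of recording tags encoded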
[41] = target: M17-modified P NTAA target peptides; assay: encoding assay; P2 G;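 further: fraction of recording tags encoded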
[42] = target: M17-modified D NTAA target peptides; assay: encoding assay; P2 G;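 further: fraction of recording tags encoded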
[43] = target: M17-modified M NTAA target peptides; assay: encoding assay; P2 G;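 further: fraction of recording tags encoded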
[44] = target: M17-modified Q NTAA target peptides; assay: encoding assay; P2 G;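 further: fraction of recording tags encoded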
[45] = target: M17-modified Y NTAA target peptides (M17-Y-P2-peptide); assay: encoding assay; P2 G;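 further: fraction of recording tags encoded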
[46] = target: M17-modified L NTAA target peptides; assay: encoding assay; P2 G;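 further: fraction of recording tags encoded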
[47] = target: M17-modified E NTAA target peptides; assay: encoding assay; P2 G;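 further: fraction of recording tags encoded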
[48] = target: M17-modified V NTAA target peptides; assay: encoding assay; P2 G;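 further: fraction of recording tags encoded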
[49] = target: M17-modified H NTAA target peptides; assay: encoding assay; P2 G;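 further: fraction of recording tags encoded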
[50] = target: M17-modified S NTAA target peptides; assay: encoding assay; P2 G;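 further: fraction of recording tags encoded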
[51] = target: M17-modified G NTAA target peptides; assay: encoding assay; P2 G;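 further: fraction of recording tags encoded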
[52] = target: M17-modified F NTAA target peptides; assay: encoding assay; P2 G;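 further: fraction of recording tags encoded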
[53] = target: M17-modified A NTAA target peptides; assay: encoding assay; P2 G;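 further: fraction of recording tags encoded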
[54] = target: M17-modified N NTAA target peptides; assay: encoding assay; P2 G;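 further: fraction of recording tags encoded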

encoding yield [1]: 0.01
encoding yield [2]: 0.01
encoding yield [3]: 0.01
encoding yield [4]: 0.01
encoding yield [5]: 0.01
encoding yield [6]: 0.03
encoding yield [7]: 0.01
encoding yield [8]: 0.01
encoding yield [9]: 0.02
encoding yield [10]: 0.01
encoding yield [11]: 0.02
encoding yield [12]: 0.01
encoding yield [13]: 0.01
B1: engineered M44-L binder (SEQ ID NO: 31) (designed binder, not shown: small tags and cut ends; large carriers)
chain: QDSTQNLIPAPPLISVPLQPGFWTERFQGRWFLVGFAGNAVQKERQSRLTMQSLILELQEDNSYNITAINVRGQGCRYIISTLVPSSRPGQFTLGNIHSYPQIQSLDVQVADTDYDQFAMVFLQGTSENKQYFEVALAGRTKGLSDELKERFVSFAKSLGLKDNNIVFSVPTDQCIDN

encoding yield [14]: 0.02
encoding yield [15]: 0.03
encoding yield [16]: 0.02
encoding yield [17]: 0.03
encoding yield [18]: 0.03
encoding yield [19]: 0.04
encoding yield [20]: 0.02
encoding yield [21]: 0.02
encoding yield [22]: 0.04
encoding yield [23]: 0.01
encoding yield [24]: 0.02
encoding yield [25]: 0.02
encoding yield [26]: 0.03
encoding yield [27]: 0.02
encoding yield [28]: 0.02
encoding yield [29]: 0.1
encoding yield [30]: 0.03
encoding yield [31]: 0.02
encoding yield [32]: 0.02
encoding yield [33]: 0.02
encoding yield [34]: 0.01
encoding yield [35]: 0.03
encoding yield [36]: 0.05
encoding yield [37]: 0.03
encoding yield [38]: 0.03
encoding yield [39]: 0.03
encoding yield [40]: 0.05
encoding yield [41]: 0.02
encoding yield [42]: 0.02
encoding yield [43]: 0.02
encoding yield [44]: 0.02
encoding yield [45]: 0.18
encoding yield [46]: 0.03
encoding yield [47]: 0.02
encoding yield [48]: 0.03
encoding yield [49]: 0.03
encoding yield [50]: 0.01
encoding yield [51]: 0.01
encoding yield [52]: 0.11
encoding yield [53]: 0.02
encoding yield [54]: 0.01
B3: upgraded binder after additional maturation round (SEQ ID NO: 62) (designed binder, not shown: small tags and cut ends; large carriers)
chain: TVPDRSEIAGKWYVVALASNTEFYLRGKDRVKSAMVRISFQGEDELKVSSAVPSPNGCYKVERTWKKTSDDGEVYNSRAAKLKVEVLDTDYKSYAVIYATRVKDRRTDHQMILYSRSPDVSPAATAIFRKLAGERNYTDEMVAMLPRQEECTVDEV

More lines, now with the values behind:

B2: engineered M17-Y binder (SEQ ID NO: 61) (designed binder, not shown: small tags and cut ends; large carriers)
chain: TVPDRSEIAGKWYVVALASNTEFYLREKDWVKSAMARISFLGEDELKVSSAVPSPNGCYKVERTWKKTSDDGEVYNSRAAKLKVEVLDTDYKSYAVIYATRVKDGRTDHQMILYSRSPEVSPAATAIFRKLAGERNYTDEMVAMLPRQEECTVDEV
encoding yield [14]: 0.01
encoding yield [15]: 0.02
encoding yield [16]: 0.02
encoding yield [17]: 0.02
encoding yield [18]: 0.03
encoding yield [19]: 0.02
encoding yield [20]: 0.02
encoding yield [21]: 0.02
encoding yield [22]: 0.01
encoding yield [23]: 0.01
encoding yield [24]: 0.01
encoding yield [25]: 0.01
encoding yield [26]: 0.02
encoding yield [27]: 0.01
encoding yield [28]: 0.01
encoding yield [29]: 0.05
encoding yield [30]: 0.02
encoding yield [31]: 0.02
encoding yield [32]: 0.02
encoding yield [33]: 0.01
encoding yield [34]: 0.01
encoding yield [35]: 0.03
encoding yield [36]: 0.04
encoding yield [37]: 0.02
encoding yield [38]: 0.02
encoding yield [39]: 0.02
encoding yield [40]: 0.03
encoding yield [41]: 0.01
encoding yield [42]: 0.01
encoding yield [43]: 0.01
encoding yield [44]: 0.02
encoding yield [45]: 0.11
encoding yield [46]: 0.02
encoding yield [47]: 0.02
encoding yield [48]: 0.02
encoding yield [49]: 0.03
encoding yield [50]: 0.01
encoding yield [51]: 0.01
encoding yield [52]: 0.06
encoding yield [53]: 0.01
encoding yield [54]: 0.01

B4: engineered M44-A binder (SEQ ID NO: 42) (designed binder, not shown: small tags and cut ends; large carriers)
chain: QVSVQPNFQQDKFLGRWFVAGLASNSSWDREKVAALSGAKMVVAPATDGGLNVTRTMLRKNQCETYTGLLQPAGSLGSYSWRSPHPGSTGSESVVETDYDQYALVYGQGSKGPGEDLRAAALWSRTQTPRAELKEKFTAFSKAQGFTEDTIVFLPQTDKCMTEQ
encoding yield [1]: 0.01
encoding yield [2]: 0.01
encoding yield [3]: 0.02
encoding yield [4]: 0.01
encoding yield [5]: 0.01
encoding yield [6]: 0.03
encoding yield [7]: 0.01
encoding yield [8]: 0.07
encoding yield [9]: 0.02
encoding yield [10]: 0.01
encoding yield [11]: 0.02
encoding yield [12]: 0.01
encoding yield [13]: 0.01
